MFI data for one substance are collected here from patent US20080292620A1.

For this experiment, the target named is T1, human prolactin receptor (PRLR), full length on cells (human) (UniProt P16471).
T1 sequence: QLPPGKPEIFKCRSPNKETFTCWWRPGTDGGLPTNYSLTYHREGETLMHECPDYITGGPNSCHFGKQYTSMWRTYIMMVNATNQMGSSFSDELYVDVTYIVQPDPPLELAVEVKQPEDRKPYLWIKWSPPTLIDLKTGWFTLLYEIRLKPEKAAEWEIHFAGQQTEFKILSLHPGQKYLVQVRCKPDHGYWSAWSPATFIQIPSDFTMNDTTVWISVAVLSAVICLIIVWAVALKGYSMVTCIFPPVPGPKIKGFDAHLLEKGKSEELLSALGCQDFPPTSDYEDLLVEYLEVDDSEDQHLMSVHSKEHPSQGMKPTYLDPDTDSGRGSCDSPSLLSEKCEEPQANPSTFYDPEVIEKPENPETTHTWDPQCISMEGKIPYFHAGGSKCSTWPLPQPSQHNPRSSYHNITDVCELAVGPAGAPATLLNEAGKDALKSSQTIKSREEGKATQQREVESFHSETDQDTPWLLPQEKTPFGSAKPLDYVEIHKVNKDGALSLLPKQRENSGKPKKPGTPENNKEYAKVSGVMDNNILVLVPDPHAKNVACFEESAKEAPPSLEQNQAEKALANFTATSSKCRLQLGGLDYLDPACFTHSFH
Description: flow cytometry on CHO-K1 cells expressing human PRLR (clone 1G5). (In general: A flow cytometer gives signals particle by particle.)

With “mAb 1167, control murine anti-PRLR monoclonal antibody (R&D Systems, catalog #MAB1167)”, the MFI is 33.8.
